We go through 1 substance from PMC10686989, “Distinct activation mechanisms of β-arrestin-1 revealed by ^19F NMR spectroscopy” (Nature Communications, 2023).

As usually defined, the Kd is the constant that tells how readily two partners part at equilibrium.

For the test, the target named is cysteine-less β-arrestin-1 D390C, 19F-labelled with wPSP-6F (human) (UniProt P49407). In words: NMR titration; 19F NMR of wPSP-6F-labelled βarr1 (D390C site) titrated with phosphopeptide; 298 K, 20 mM Tris-HCl, 150 mM NaCl, pH 8.0; Kd estimated.
Sequence of cysteine-less β-arrestin-1 D390C, 19F-labelled with wPSP-6F (human) (P49407 whole entry C59V/C125S/C140L/C150V/C242V/C251V/C269S/D390C): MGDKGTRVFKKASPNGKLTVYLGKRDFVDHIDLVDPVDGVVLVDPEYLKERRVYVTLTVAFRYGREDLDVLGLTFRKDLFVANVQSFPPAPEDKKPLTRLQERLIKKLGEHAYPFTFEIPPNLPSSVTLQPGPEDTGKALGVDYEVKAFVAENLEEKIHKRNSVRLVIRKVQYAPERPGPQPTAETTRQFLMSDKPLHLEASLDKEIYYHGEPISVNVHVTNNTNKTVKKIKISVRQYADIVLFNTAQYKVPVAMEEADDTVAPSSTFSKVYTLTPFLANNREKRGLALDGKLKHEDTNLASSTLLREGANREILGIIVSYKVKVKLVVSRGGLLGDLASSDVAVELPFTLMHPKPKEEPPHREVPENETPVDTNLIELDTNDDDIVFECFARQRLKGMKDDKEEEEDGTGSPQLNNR

Turning to “V2Rpp, phosphopeptide derived from the vasopressin V2 receptor (V2R)”, the Kd was 1300 nM.
